Consider 1 substance from publication PMC6152271.

For the assay, the target named is recombinant human soluble catechol-O-methyltransferase (human) (UniProt P21964).

As to bovine lactoferrin (natural protein), the IC50 of inhibition of COMT activity (methyl transfer from 14C-SAM to DBA) is 1600 nM.
